Source: the supplement of paper PMC9732359
± gives the uncertainty stated by the source.

Test: protein stability index of a GFP-peptide fusion (yeast GPS) (PSI 1-4); higher = more stable; sorted into four equal gates, so the index is relative within each strain
Outline: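 Peptides tiling yeast proteins in 17-residue segments were fused downstream of GFP, with Cherry expressed from the same plasmid. As a pooled library in yeast, mid-log cultures grown in leucine-free medium were sorted into four equal gates by GFP/Cherry fluorescence ratio. Gate plasmids were PCR-amplified and Illumina-sequenced, and barcodes linked reads to strains. Each peptide received a protein stability index equal to the sum of each gate's read frequency times its gate number.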

| Sequence | protein stability index (doa10∆) | protein stability index (pdr5∆) | protein stability index (san1∆) | protein stability index (ubr1∆) |
| --- | --- | --- | --- | --- |
| LSAVAQAESMKFKLLNG [RPS3] | 3.06 ± 0.1 | 3.21 ± 0.1 | 2.83 ± 0.12 | 3.09 ± 0.079 |
| STPENVPRLFDLVKPKN [SMC4] | 2.65 ± 0.077 | 3.11 ± 0.087 | 2.65 ± 0.12 | 2.81 ± 0.053 |
| SMILIQQTEKLNPQVAD [RPN2] | 1.53 ± 0.041 | 1.67 ± 0.044 | 1.65 ± 0.073 | 1.63 ± 0.03 |
| MAMNITPRLYTDRSRDF [RPB2] | 2.93 ± 0.089 | 3 ± 0.087 | 2.96 ± 0.096 | 3.2 ± 0.087 |
| PLRDNGLLDESPNRLRV [YML031W/NDC1] | 3.2 ± 0.14 | 3.03 ± 0.1 | 3.15 ± 0.08 | 3.39 ± 0.074 |
| AISGKKTTYYYYNEEGI [RPC82] | 2.61 ± 0.067 | 2.97 ± 0.14 | 2.8 ± 0.056 | 3.06 ± 0.076 |
| QQQQQQNNSTGSSSIIY [SSN2] | 2.65 ± 0.07 | 2.99 ± 0.062 | 2.69 ± 0.091 | 2.79 ± 0.065 |
| ELEDVAVKKLYAIIINY [YCS4] | 1.84 ± 0.057 | 1.97 ± 0.065 | 1.59 ± 0.12 | 1.44 ± 0.031 |
| ESKFILEALRQNYRLDG [RRP45] |  |  | 2.95 ± 0.28 |  |
| ISFLEPINLKFLQGESP [YMR129W/POM152] | 2.6 ± 0.073 | 2.94 ± 0.11 |  | 2.67 ± 0.15 |
| YGFEDESAPITAEDSWA [RPB2] | 3.06 ± 0.058 | 3.16 ± 0.055 | 3.35 ± 0.042 | 3.17 ± 0.053 |
| EVTKSSHVENLEEKLYQ [YIL149C/MLP2] | 2.76 ± 0.073 | 2.97 ± 0.072 | 2.93 ± 0.052 | 2.98 ± 0.048 |
| QVGDGLEILIVTKDGVR [PRE7] | 2.64 ± 0.054 | 2.6 ± 0.049 | 2.92 ± 0.053 | 2.76 ± 0.052 |
| YISFIKDDRFVPVRKFK [RPN2] | 2.41 ± 0.048 | 2.82 ± 0.039 | 2.96 ± 0.041 | 2.85 ± 0.031 |
| TSNNETNNGNDDNETEN [GRR1] | 3.03 ± 0.074 | 3.28 ± 0.077 | 3.14 ± 0.053 | 2.92 ± 0.055 |
| MQIFVKTLTGKTITLEV [RPS31] | 2.48 ± 0.17 | 1.76 ± 0.097 | 2.61 ± 0.13 | 3.13 ± 0.13 |
| SKNTAVSKVQKRKVLEL [SRP72] | 2.66 ± 0.11 | 2.1 ± 0.16 |  |  |
| KVVYIQRRSWRQYVGQL [DIS3] |  | 3.51 ± 0.17 | 3.02 ± 0.12 |  |
| NGKDNNNESNKNNNGDE [MED2] | 3.12 ± 0.053 | 3.17 ± 0.042 | 3.23 ± 0.034 | 3.15 ± 0.035 |
| KLLDDNPTEFDWPTYVD [SRB8] | 3.11 ± 0.072 | 3.29 ± 0.061 | 3.01 ± 0.042 | 2.99 ± 0.058 |

| Sequence | protein stability index (doa10∆) | protein stability index (pdr5∆) | protein stability index (san1∆) | protein stability index (ubr1∆) |
| --- | --- | --- | --- | --- |
| ISRNGDTSYKIDGKTVS [SMC1] | 2.72 ± 0.14 | 3.01 ± 0.074 | 2.9 ± 0.064 | 3.29 ± 0.081 |
| DGTGVRVIVAGTLDINP [FAS1] | 2.36 ± 0.068 | 2.87 ± 0.071 | 2.99 ± 0.065 | 2.59 ± 0.061 |
| NNDQKRQQAYKTAQTLD [YJL041W/NSP1] | 3.14 ± 0.071 | 3.17 ± 0.063 | 3.33 ± 0.053 | 3.23 ± 0.047 |
| FGINTNTTKTADTKAPT [YLR335W/NUP2] | 3.4 ± 0.085 | 3.41 ± 0.073 | 3.19 ± 0.07 | 3.5 ± 0.048 |
| HGGGNHQHIGKASTISR [RPL2A] | 3.18 ± 0.051 | 3.31 ± 0.052 | 3.08 ± 0.039 | 3.11 ± 0.04 |
| TANAKHTSSNSREIAQP [SMB1] | 2.91 ± 0.14 | 2.94 ± 0.099 | 3.19 ± 0.07 | 3.33 ± 0.17 |
| NTDLKDIIQGNPLMYSG [PCI8] | 2.84 ± 0.051 | 3.13 ± 0.085 | 3.21 ± 0.11 | 3.2 ± 0.086 |
| AMICEAKGLIENIFEGE [YJR042W/NUP85] | 2.94 ± 0.13 | 2.93 ± 0.086 | 2.5 ± 0.1 | 2.81 ± 0.064 |
| GITHFRAGMTHEDEKLI [PRP8] | 2.62 ± 0.079 | 2.47 ± 0.065 | 3.1 ± 0.059 | 3.14 ± 0.044 |
| RVRAESLHSNSFSLTVS [YJL039C/NUP192] | 1.74 ± 0.066 | 1.76 ± 0.072 | 1.43 ± 0.17 | 1.75 ± 0.064 |
| KKAVVKGTNGKKALKVR [RPL25] | 2.84 ± 0.094 | 2.24 ± 0.078 | 1.91 ± 0.11 | 2.75 ± 0.063 |
| EEDISDLWNNFGNIMDN [RRP6] | 3.13 ± 0.078 | 2.98 ± 0.071 | 3.02 ± 0.052 | 3.02 ± 0.1 |
| LSLGMDFIKFDQIAVCE [BRN1] | 3 ± 0.085 | 3.01 ± 0.079 | 2.77 ± 0.057 | 2.89 ± 0.071 |
| SKINELSYYVEETNVDI [SMC4] | 3.28 ± 0.17 | 2.98 ± 0.15 |  | 2.99 ± 0.15 |
| NYNDLIVNYEDLATTQA [BRN1] | 2.98 ± 0.07 | 3.1 ± 0.087 | 3.34 ± 0.047 | 3.27 ± 0.061 |
| PPPPPPSNFEINAEEIV [PRP8] | 2.6 ± 0.038 | 3.04 ± 0.046 | 2.72 ± 0.039 | 2.9 ± 0.038 |
| RSKFLSTVAKFLARVIK [IRR1] | 3.04 ± 0.07 | 2 ± 0.07 | 2.24 ± 0.11 | 2.2 ± 0.047 |
| NESSSNTTVISDKQRRL [DIS3] | 3.15 ± 0.086 | 3.21 ± 0.086 | 2.98 ± 0.061 | 3.05 ± 0.058 |
| EINSEDYDNKTKLIGVL [SRP68] | 3.2 ± 0.15 | 3.04 ± 0.18 | 3.25 ± 0.076 | 3.02 ± 0.12 |
| KQTADWLAEKFQKETNM [PRP28] | 2.57 ± 0.2 | 3.12 ± 0.14 | 3.43 ± 0.091 | 3.16 ± 0.21 |
